This is an account of results in article PMC10308935 (Journal of Virology, 2023).

Test [1] deals with SARS-CoV-2 Omicron BA.2 spike receptor-binding domain (SARS-CoV-2 Omicron BA.2, strain). Description: BLI.
The target in test [2] is SARS-CoV-2 Omicron BA.5 spike receptor-binding domain (SARS-CoV-2 Omicron BA.5, N440K | L452R | F486V). Nature of the test: BLI.

B1: MO1 monoclonal antibody (recombinant human IgG) (antibody, V domains shown)
VH: EVQLVESGGGMVQPGRSLRLSCAASGFTFDDYAMHWVRQIPGKGLEWVSGISWNSGDIGYADSVKGRFTISRDNAKNSLHLQMNSLRAEDTALYYCAKDKTYDSPGYFLNSFDYWGQGTLVTVSS
VL: DIQMTQSPSSLSASVGDRVTITCRASQGISSYLVWYQQKPGKAPKFLIYAASTLQSGVPSRFSGSGSGTDFTLTISSLQPEDFATYYCQQLYSYPITFGQGTRLEIK
On to B1, for which the Kd in test [1] amounted to 3.3 nM; in test [2], 11 nM.
